Source: patent publication US10945940B2, “Method of preparing ultra-low molecular weight keratin peptide” (KYUNGPOOK NATIONAL UNIVERSITY INDUSTRY-ACADEMIC COOPERATION …, priority 2015, dated 2021)

How the values were obtained:
MMP-1 expression = assay: Inhibition of UVB-induced MMP-1 expression in human dermal fibroblasts (Western blot); assay type: cell-based; settings: 10 μM, 20 mJ/cm^2 UVB
Description: Then, ultraviolet ray B was irradiated with 20 mJ/cm^2 using Vilber Lourmat (BioLink Crosslinker, France), cultured for 24 hours, and then cell proteins were recovered. At this time, the medium was removed before ultraviolet irradiation, and then washed with phosphate buffered saline (PBS) solution to remove serum components in the medium and then irradiated with ultraviolet ray B. The cells were washed twice with PBS solution to recover the proteins, and then the cells adhered to the bottom were recovered using a lysis buffer and centrifuged at 14,000 rpm for 10 minutes. After each supernatant was recovered, the protein concentration of each cell supernatant was quantified according to the method of use with a protein assay kit (Bio-Rad, USA) using bovine serum albumin (BSA) as the reference material. About […] protein from each of the protein extracts was denatured and separated by 8% gel sodium dodecyl sulphate-polyacrylamide gel electrophoresis (SDS-PAGE) and transferred to a polyvinylidene fluoride (PVDF) membrane at 120 mA for 2 hours. […]

[1] = target: T1, Matrix metalloproteinase-1 (MMP-1) enzyme (Homo sapiens, UniProt P03956); assay: MMP-1 enzyme activity inhibition in vitro (MMP-1 Fluorometric Drug Discovery Kit); assay type: biochemical; settings: for inhibition of MMP-1 enzyme activity compared to the group treated with the only MMP-1 enzyme: 10 μM; for significant effect of inhibiting MMP-1 activity: FIG. 5A
T1 construct: purchased Enzo
T1 sequence (P03956 100-269 limits assumed): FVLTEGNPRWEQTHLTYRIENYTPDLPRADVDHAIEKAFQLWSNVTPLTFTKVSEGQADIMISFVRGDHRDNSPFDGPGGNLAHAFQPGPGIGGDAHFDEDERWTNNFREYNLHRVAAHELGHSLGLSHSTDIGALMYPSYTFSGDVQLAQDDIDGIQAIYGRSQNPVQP
Description: MMP-1 Fluorometric Drug Discovery Kit manufactured by Enzo company was used to evaluate an ability to inhibit Matrix metalloproteinase-1 (MMP-1) enzyme activity in the peptide synthesized in Example 3. N-Isobutyl-N-(4-methoxyphenylsulfonyl) glycyl hydroxamic acid (NNGH) which is known to inhibit MMP-1 activity was used as a positive control group, and NNGH was treated at a concentration of 0.65 μM. […] The substrate was added to the reaction mixture, fluorescence thereof was measured at Ex/Em=540/590 nm, and the ability to inhibit MMP-1 activity was evaluated according to the following Equation 2. The results of the ability of inhibiting MMP-1 activity are illustrated in FIG. 5A. Ability to inhibit MMP-1activity(%)=Fluorescence intensity of sample-added group/Fluorescence intensity of non-treated group×100 [Equation 2]

Substance | inhibition of MMP-1 expression compared to the group treated with the only UVB (MMP-1 expression) | inhibition of MMP-1 enzyme activity compared to the group treated with the only MMP-1 enzyme [1] | significant effect of inhibiting MMP-1 activity [1]
GLGSR [2-2] | ~35% | inhibited the activity of MMP-1 enzyme | significant effect of inhibiting MMP-1 activity
FPQN [2n7-5] | – | inhibited the activity of MMP-1 enzyme | –
GPTPL [2-1] | about 24% | inhibited the activity of MMP-1 enzyme | significant effect of inhibiting MMP-1 activity
GLSGL [KP7-1] | – | inhibited the activity of MMP-1 enzyme | significant effect of inhibiting MMP-1 activity
IQPSPV [KP7-2] | – | inhibited the activity of MMP-1 enzyme | significant effect of inhibiting MMP-1 activity
PISS [2n7-2] | – | inhibited the activity of MMP-1 enzyme | –
GFGGF [2n7-4] | – | inhibited the activity of MMP-1 enzyme | significant effect of inhibiting MMP-1 activity
